Source: patent US20220204996A1

Legend:
[1] = molecular target: PSI purified from WT^H6 (Chlamydomonas reinhardtii) (UniProt P12154); test: cell-based or functional assay
[2] = molecular target: PSI-HydA complex of the ΨH1 strain (hydA1-1 hydA2-1 [psaC-hydA2]) (Chlamydomonas reinhardtii) (UniProt P12154); test: cell-based or functional assay
[3] = molecular target: PSI-HydA complex purified from ΨH1^H6 (Chlamydomonas reinhardtii) (UniProt P12154); test: cell-based or functional assay
[4] = molecular target: PSI-HydA complex purified from ΨH1^H6 (Chlamydomonas reinhardtii) (UniProt P12154); test: immunoblot of isolated PSI particles loaded on equal P700
[5] = molecular target: PSI-HydA complex of the ΨH1 strain (hydA1-1 hydA2-1 [psaC-hydA2]) (Chlamydomonas reinhardtii) (UniProt P12154); test: cell-based or functional assay; remark: listed apart in the source
[6] = substrate: PSI purified from the hydA strain (hydA1-1 hydA2-1) (Chlamydomonas reinhardtii) (UniProt P12154); test: cell-based or functional assay

ferredoxin (Fd) (from UniProt P07839 33-126)
NADP+ photoreduction rate (coupled assay with Fd and FNR) (NADPH s^-1 per PSI) [1]: 1.57 | rate of H2 production in the dark (GC-TCD, ΨH1 culture) (nmol H2 h^-1 (mg Chl)^-1) [2]: 330 | NADP+ photoreduction rate (coupled assay with Fd and FNR) (NADPH s^-1 per PSI) [3]: 0.77 | ability of PSI-HydA to reduce algal Fd (in a coupled assay) [3]: 50%

B1: PsaD (protein, Chlamydomonas reinhardtii, UniProt Q39615 36-196, looked up)
chain: EAEAAPAAAKKAAEKPAWTVPTLNPDTPSPIFGGSTGGLLRKAQTEEFYVITWEAKKEQIFEMPTGGAAIMRQGPNLLKFGKKEQCLALTTQLRNKFKLTPCFYRVFPDGKVQYLHPADGVYPEKVNAGRVGANQNMRRIGQNVNPIKVKFSGRMMSPAEI
ratio of anti-PsaD cross-reactive bands (PSI : PSI-HydA) (ratio to WT PSI) [4]: 1.02

B2: Recombinant Synechococcus sp. PCC7002 flavodoxin (protein, UniProt P31158 2-170, looked up)
chain: SKIGLFFGTQTGNTEELAQAIQAAFGGSDIVELFDVAEVDIEALRDFDQLIIGCPTWNVGELQSDWEALYDDLDDVDFSGKTIAYFGAGDQVGYADNFQDAMGVLEEKITSLGGKTVGQWPTAGYDHSESKAERDGKFVGLAIDEDNQPELTAERIQAWVAQLKPAFGL
Flavodoxin photoreduction turnover rate [5]: 0.088 s⁻¹ | light-driven reduction of cyanobacterial flavodoxin, drop against PSI [5]: 9 fold | Flavodoxin photoreduction turnover rate [6]: 0.77 s⁻¹
